Here are results for 1 substance from PMC4564177.

Assay in all cases: fluorescence polarisation; competition set-up: constant concentration of isolated PSD95 PDZ domain and Cy5-labeled reference ligand titrated with the unlabeled CRHR1 peptide
On the technique in general: Polarisation of emitted light reports the rotation of a fluorescent probe.

Assay [1] addresses isolated PDZ3 domain of PSD95 (UniProt P78352).
Assay [2] concerns the target isolated PDZ1 domain of PSD95 (UniProt P78352).
Assay [3] deals with isolated PDZ2 domain of PSD95 (UniProt P78352).
In assay [4] the target is isolated PDZ1-2 tandem of PSD95 (UniProt P78352).
isolated PDZ1-2 tandem of PSD95, sequence (P78352 whole entry): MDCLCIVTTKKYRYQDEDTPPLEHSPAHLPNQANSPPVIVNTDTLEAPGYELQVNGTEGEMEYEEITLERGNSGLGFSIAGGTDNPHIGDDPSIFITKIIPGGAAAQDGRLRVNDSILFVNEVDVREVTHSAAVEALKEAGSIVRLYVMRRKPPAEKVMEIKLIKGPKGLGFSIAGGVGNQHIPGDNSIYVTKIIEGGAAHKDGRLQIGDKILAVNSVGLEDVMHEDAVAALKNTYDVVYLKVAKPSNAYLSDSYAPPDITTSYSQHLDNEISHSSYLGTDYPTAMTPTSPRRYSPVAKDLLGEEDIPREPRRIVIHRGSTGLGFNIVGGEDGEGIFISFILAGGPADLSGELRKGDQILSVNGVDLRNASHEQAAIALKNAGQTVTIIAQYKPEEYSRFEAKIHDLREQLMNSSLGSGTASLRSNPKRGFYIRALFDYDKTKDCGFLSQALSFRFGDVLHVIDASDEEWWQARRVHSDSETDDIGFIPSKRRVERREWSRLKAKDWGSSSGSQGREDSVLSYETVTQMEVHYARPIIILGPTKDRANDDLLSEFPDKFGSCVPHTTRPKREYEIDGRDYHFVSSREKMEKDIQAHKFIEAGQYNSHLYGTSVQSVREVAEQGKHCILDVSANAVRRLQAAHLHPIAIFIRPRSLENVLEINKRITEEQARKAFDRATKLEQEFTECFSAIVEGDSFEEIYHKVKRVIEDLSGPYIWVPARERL

C-terminal 10 amino acids of CRHR1 (unlabeled CRHR1 peptide), sequence (P35347 whole entry, looked up, tested part not stated): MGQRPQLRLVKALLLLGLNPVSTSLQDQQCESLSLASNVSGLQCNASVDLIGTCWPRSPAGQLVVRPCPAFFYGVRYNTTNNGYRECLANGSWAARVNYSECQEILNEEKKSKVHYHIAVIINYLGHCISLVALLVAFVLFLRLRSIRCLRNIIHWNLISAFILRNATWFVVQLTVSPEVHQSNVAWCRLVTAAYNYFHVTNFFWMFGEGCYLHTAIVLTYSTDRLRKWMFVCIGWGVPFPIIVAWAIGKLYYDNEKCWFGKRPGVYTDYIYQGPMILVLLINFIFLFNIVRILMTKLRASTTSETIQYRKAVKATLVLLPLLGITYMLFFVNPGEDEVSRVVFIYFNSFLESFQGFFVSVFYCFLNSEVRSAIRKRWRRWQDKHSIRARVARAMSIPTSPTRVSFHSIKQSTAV
isolated PDZ1 domain of PSD95, sequence (P78352 whole entry, the tested form may be a part): as the sequence (P78352 whole entry) above
isolated PDZ2 domain of PSD95, sequence (P78352 whole entry, the tested form may be a part): as the sequence (P78352 whole entry) above
isolated PDZ3 domain of PSD95, sequence (P78352 whole entry, the tested form may be a part): as the sequence (P78352 whole entry) above

As usually defined, the Ki is the dissociation constant of the complex between target and ligand, obtained from inhibition or displacement. As for “C-terminal 10 amino acids of CRHR1 (unlabeled CRHR1 peptide) (from UniProt P35347 406-415)”, the Ki in assay [1] amounted to 48 µM; in assay [2], 77 µM; in assay [3], 19 µM; in assay [4] it was 24 µM.
